Source: patent US20230212266A1 (FRED HUTCHINSON CANCER CENTER, published 2023)
Where a chain is given by its changes, count along the chain named. Like-named read-outs stand apart in the source and are kept apart here.

Assays:
Test in all cases: BLI, mAb on anti-human Fc probe, antigen in solution
[1] = target: T1, SARS-CoV-2 receptor binding domain (RBD) (SARS-CoV-2, UniProt P0DTC2 319-591)
[2] = target: T1, SARS-CoV-2 receptor binding domain (RBD); remark: listed apart in the source
[3] = target: T1, SARS-CoV-2 receptor binding domain (RBD); remark: listed apart in the source
[4] = target: T1, SARS-CoV-2 receptor binding domain (RBD); remark: listed apart in the source
[5] = target: T1, SARS-CoV-2 receptor binding domain (RBD); remark: listed apart in the source
[6] = target: T1, SARS-CoV-2 receptor binding domain (RBD); remark: listed apart in the source
[7] = target: T1, SARS-CoV-2 receptor binding domain (RBD); remark: listed apart in the source
[8] = target: T1, SARS-CoV-2 receptor binding domain (RBD); remark: listed apart in the source
[9] = target: T1, SARS-CoV-2 receptor binding domain (RBD); remark: listed apart in the source
[10] = target: T1, SARS-CoV-2 receptor binding domain (RBD); remark: listed apart in the source
[11] = target: T1, SARS-CoV-2 receptor binding domain (RBD); remark: listed apart in the source
[12] = target: T1, SARS-CoV-2 receptor binding domain (RBD); remark: listed apart in the source
[13] = target: T1, SARS-CoV-2 receptor binding domain (RBD); remark: listed apart in the source
[14] = target: T1, SARS-CoV-2 receptor binding domain (RBD); remark: listed apart in the source
[15] = target: T1, SARS-CoV-2 receptor binding domain (RBD); remark: listed apart in the source
[16] = target: T1, SARS-CoV-2 receptor binding domain (RBD); remark: listed apart in the source
[17] = target: T1, SARS-CoV-2 receptor binding domain (RBD); remark: listed apart in the source

B1: CV2-2 (antibody, V domains shown)
VH: EVQLLESGGGLAQPGGSLRLSCAASGFTFSSYAMSWVRQAPGKGLEWVSAISGSGGNTYYADSLKGRFTISRDNSKSTLYLQMNSLRAEDTAVYYCAKGPMWQWLVRLSLVGDYWGQGTLVTVSS
VL: SYVLTQPPSVSVAPGQTARITCGGNNIGSKGVHWYQQKPGQAPVLVVFDDSDRPSGIPERFSGSNSGNTATLTISRVEAGDEADYYCQVWDSTSDHPGYVFGTGTKVTVL
notes: expressed as IgG
- binding result [1]: no binding

B2: CV39 (antibody, V domains shown)
VH: QVQLVESGGGVVQPGRSMRLSCAASGFNLSSYAMHWVRQASGKGLEWVSLISYDGSIKYYADSVKGRFTVSGDNSKNTLFLQMSSLRADDSALYYCVRGGVSGPNAFDIWGQGTTVTVSS
VL: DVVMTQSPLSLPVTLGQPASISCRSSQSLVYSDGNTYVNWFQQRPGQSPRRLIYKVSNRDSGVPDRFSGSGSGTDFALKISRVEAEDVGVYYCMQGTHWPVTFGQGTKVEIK
notes: expressed as IgG
- binding result [2]: no binding

B3: CV42 (antibody, V domains shown)
VH: QVQLVQSGAEVKKPGASVKVSCKASGYTFTSYGISWVRQAPGQGLEWMGWISAYNGNTNYAQKVQGRVTMTTDTSTSTAYMELRSLRSDDTAVYYCARDRGYAATFGVFDYWGQGTLVTVSS
VL: DIQMTQSPSSLSASVGDRVTITCRASQSISSYLNWYQQKPGKAPKFLIYAASSLQSGVPSRFSGSGSGTDFTLTISSLQPEDFATYYCQQTYITAFTFGPGTKVDIK
notes: expressed as IgG
- binding result [3]: no binding

B4: CV48 (antibody, V domains shown)
VH: QVQLVQSGAEVKKPGSSVKVSCKASGGTFSSYTINWVRQAPGQGLEWMGRIIPILGIADYAQKFQGRVTITADKSTSTAYMELSSLRSEDTAVYYCARDLVEDTAMVTGAAAGTWGQGTLVTVSS
VL: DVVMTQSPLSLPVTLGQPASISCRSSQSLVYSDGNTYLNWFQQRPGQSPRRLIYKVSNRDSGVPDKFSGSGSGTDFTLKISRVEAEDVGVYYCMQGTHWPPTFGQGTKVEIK
notes: expressed as IgG
- binding result [4]: no binding

B5: CV40 (antibody, V domains shown)
VH: QVQLVQSGAEVKKPGASVKVSCKASGYTFSSYGISWVRQDPGQGLEWMGWISAYNGNTNYAQKLQGRVTMTTDTSTSTAYMELRSLRSDDTAVYYCARVGLWWLGHPDAFDIWGQGTMVTVSS
VL: DIQMTQSPSSLSASVGDRVTITCRASQGIRNDLGWYQQKPGKAPKRLIYAASSLQSGVPSRFSGSGSGTEFTLTISSLQPEDFATYYCLQHNSYPLTFGGGTKVEIK
notes: expressed as IgG
- binding result [5]: no binding

B6: CV2-3 (antibody, V domains shown)
VH: QLQLQESGPGLVKPSETLSLTCTVSGGSISSSTYYWGWIRQPPGKGLEWIGNIYYTGSTYYNPSLKSRVTISVDTSKNHFSLRLSSVTAADTAVYYCARHNRFWSEDTPFDPWGQGTLVTVSS
VL: B5 VL
notes: expressed as IgG
- binding result [6]: no binding

B7: CV47 (antibody, V domains shown)
VH: B5 VH with S30T, D40A, N55S, L83V, A109V
VL: B5 VL
notes: expressed as IgG
- binding result [7]: no binding

B8: CV6 (antibody, V domains shown)
VH: QVQLVQSGAEVKKPGASVKVSCKVSGYTLTELSMHWVRQAPGKGLEWMGGFDPEDGETIYAQKFQGRVTMTEDTSTDTAYMELSSLRSEDTAVYYCATGPPYCSSTSCEHWFDPWGQGTLVTVSS
VL: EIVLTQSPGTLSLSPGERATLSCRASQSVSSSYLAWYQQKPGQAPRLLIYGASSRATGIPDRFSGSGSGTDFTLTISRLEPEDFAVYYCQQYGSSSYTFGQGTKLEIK
notes: expressed as IgG
- binding result [8]: no binding

B9: CV2-4 (antibody, V domains shown)
VH: QVQLVQSGAEVKKPGSSVKVSCKASGGTFSSYAITWVRQAPGQGLEWMGGIIPIFGTANYAQKFQGRVTITADESTSTAYMELSSLRSEDTAVYYCVRVALYDSSGYSPDYWGQGTLVTVSS
VL: EIVLTQSPATLSLSPGERATLSCRASQSVSNFLAWYQQKPGQAPRLLIYDASNRATGIPARFSGSGSGTDFTLTISSLEPEDFAVYYCQHRSNWPPGITFGQGTRLEIK
notes: expressed as IgG
- binding result [9]: no binding

B10: CV2-5 (antibody, V domains shown)
VH: QVQLVQSGAEVKKPGSSVKVSCKASGGTFSSYAISWVRQAPGQGLEWMGGIIPIFGTTNNAQKFQGRVTLTADESTSAAYMELSSLRSEDTAVYYCARIEPYASTGYTFDYWGQGTLVTVSS
VL: B9 VL with N31S, H90Q, G97R
notes: expressed as IgG
- binding result [10]: no binding

B11: CV37 (antibody, V domains shown)
VH: QVQLVQSGAEVKKPGASVKVSCKASGYTFTSYGISWVRQAPGQGLEWMGWISAYNGNTNYAQKLQGRVTMTTDTSTSTAYMELRSLRSDDTAVYYCARARVAYDYIWGSYRYKAFDYWGQGTLVTVSS
VL: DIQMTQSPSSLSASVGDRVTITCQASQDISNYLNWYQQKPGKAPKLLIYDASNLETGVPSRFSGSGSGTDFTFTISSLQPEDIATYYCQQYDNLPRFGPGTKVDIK
notes: expressed as IgG
- binding result [11]: no binding

B12: CV33 (antibody, V domains shown)
VH: QVQLVQSGAEVKKPGASVKVSCKASGYTFTSYDISWVRQAPGQGLEWMGWISAYNGNTNYAQKLQGRVTMTTDTSTSTAYMELRSLRSDDTAVYYCARDSVAGIYYYYGMDVWGQGTTVTVSS
VL: QSVLTQPPSVSGAPGQRVTISCTGSSSNIGAGYDVHWYQQLPGTAPKLLIYGNSNRPSGVPDRFSGSKSGTSASLAITGLQAEDEADYYCQSYDSSLSGPVVFGGGTKLTVL
notes: expressed as IgG
- binding result [12]: no binding

B13: CV36 (antibody, V domains shown)
VH: QVQLVQSGAEVKKPGASVKVSCKASGYTFTGYYMHWVRQAPGQGLEWMGWINPNSGGTNYVQKFQGRVTMTRDTSISTAYMELNRLRSDDTAVYFCARDLTTTAGTDYYYGMDVWGQGTTVTVSS
VL: SYELTQPPSVSVSPGQTARITCSGDALPKQYAYWYQQKPGQAPVLVIYKDTERPSGIPERFSGSSSGTTVTLTISGVQAEDEADYYCQSADSSGTYMIFGTGTKVTVL
notes: expressed as IgG
- binding result [13]: no binding

B14: CV44 (antibody, V domains shown)
VH: QVQLVQSGAEVKKPGASVKVSCKASGYTFTSYYMHWVRQAPGQGLEWMGIINPSGGSTSYAQKFQGRVTMTRDTSTSTVYMELSSLRSEDTAVYYCARDLTSTSSSPYSYYYGMDVWGQGTTVTVSS
VL: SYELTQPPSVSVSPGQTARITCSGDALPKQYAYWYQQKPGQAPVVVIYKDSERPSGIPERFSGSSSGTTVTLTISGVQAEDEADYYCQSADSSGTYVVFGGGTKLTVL
notes: expressed as IgG
- binding result [14]: no binding

B15: CV34 (antibody, V domains shown)
VH: QVQLVESGGGVVQPGRSLRLSCAASGFTFSSYAMHWVRQAPGKGLEWVAVISYDGSNKYYADSVKGRFTISRDNSKNTLYLQMNSLRAEDTAVYYCARSYGGSYYYGMDVWGQGTTVTVSS
VL: SYELTQPHSVSVATAQMARITCGGNNIGSKAVHWYQQKPGQDPVLVIYSDSNRPSGIPERFSGSNPGNTATLTISRIEAGDEADYYCQVWDSSSDHVVFGGGTKLTVL
notes: expressed as IgG
- binding result [15]: no binding

B16: CV41 (antibody, V domains shown)
VH: B15 VH with S99T, Y100K, Y105F, Y106A, G107P, M108F, V110Y, T116L
VL: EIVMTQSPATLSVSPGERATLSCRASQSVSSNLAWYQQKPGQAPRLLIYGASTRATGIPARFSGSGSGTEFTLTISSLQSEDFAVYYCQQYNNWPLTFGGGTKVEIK
notes: expressed as IgG
- binding result [16]: no binding

B17: CV2-1 (antibody, V domains shown)
VH: B15 VH with V93I, S99P, G101S, Y106A, G107Y, M108F, V110Y, T116L
VL: EIVMTQSPATLSVSPGERATLSCRASQSVSSNLAWYQQKPGQAPRLLIYGASTRATGIPARFSGSGSGTEFTLTISSLQSEDFAVYYCQQYNNWLALTFGGGTKVEIK
notes: expressed as IgG
- binding result [17]: no binding
